Drawing on article PMC6179186, “Novel RNA aptamers targeting gastrointestinal cancer biomarkers CEA, CA50 and CA72-4 with superior affinity and specificity”, this text covers Kd for five molecules.

In data set [1] the test system is CA72-4 (cancer antigen 72-4) (human). The data set is described as follows: fluorescence titration. The settings on record: 5 mM MgCl2; yeast tRNA competitor 1 ug/ul; RSB-100: 10 mM Tris-HCl pH 7.5, 5 mM MgCl2, 100 mM NaCl, 0.01% NP-40, yeast tRNA 1 ug/ul, room temperature, 10 min; 1 pmol RNA, antigen 0-200 nM.
In data set [2] the test system is CA50 (cancer antigen 50) (human). Kind of data set: fluorescence titration. As to conditions: 5 mM MgCl2; yeast tRNA competitor 1 ug/ul; RSB-100: 10 mM Tris-HCl pH 7.5, 5 mM MgCl2, 100 mM NaCl, 0.01% NP-40, yeast tRNA 1 ug/ul, room temperature, 10 min; 1 pmol RNA, antigen 0-200 nM.
Data set [3] has as its target CEA (carcinoembryonic antigen) (human, UniProt P06731 35-685). The data set is described as follows: fluorescence titration; 5 mM MgCl2; yeast tRNA competitor 1 ug/ul; RSB-100: 10 mM Tris-HCl pH 7.5, 5 mM MgCl2, 100 mM NaCl, 0.01% NP-40, yeast tRNA 1 ug/ul, room temperature, 10 min; 1 pmol RNA, antigen 0-200 nM. As to conditions: protein: commercial; label: Alexa Fluor 488 (ULS); mfold-predicted secondary structure.

Chain of CEA (carcinoembryonic antigen) (P06731 35-685): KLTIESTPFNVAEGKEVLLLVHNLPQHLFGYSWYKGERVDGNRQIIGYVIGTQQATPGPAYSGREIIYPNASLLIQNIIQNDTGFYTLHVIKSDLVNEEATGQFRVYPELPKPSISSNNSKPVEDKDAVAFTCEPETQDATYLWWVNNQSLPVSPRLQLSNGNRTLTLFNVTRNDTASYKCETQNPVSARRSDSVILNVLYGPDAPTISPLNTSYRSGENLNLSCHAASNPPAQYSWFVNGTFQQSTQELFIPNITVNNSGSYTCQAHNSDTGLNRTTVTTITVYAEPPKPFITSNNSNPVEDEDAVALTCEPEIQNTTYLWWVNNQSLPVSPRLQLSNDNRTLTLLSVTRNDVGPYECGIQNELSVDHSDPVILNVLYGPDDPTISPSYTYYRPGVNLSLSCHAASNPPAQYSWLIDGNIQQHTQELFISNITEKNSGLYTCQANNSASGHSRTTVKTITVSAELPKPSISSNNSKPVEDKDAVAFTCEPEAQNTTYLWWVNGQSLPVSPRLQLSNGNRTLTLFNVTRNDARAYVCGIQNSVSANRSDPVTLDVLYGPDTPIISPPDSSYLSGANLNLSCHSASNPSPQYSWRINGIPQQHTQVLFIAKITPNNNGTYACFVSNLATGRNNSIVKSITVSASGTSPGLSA

By Kd is commonly meant the constant that tells how readily two partners part at equilibrium. Turning to “GGGUCGUGUCGGAUCCUGCGAAGGGGGGCAGAGGUUUGACGCGAGAAAGCUUCUAAGGUAACGAU [CA72-4 A01]”, in data set [1], the Kd turned out to be 52.7 nM.
As to “GGGUCGUGUCGGAUCCAGCUCGAAAGUGGGCUGGCGAUGUGUCCCGAAGCUUCUAAGGUAACGAU [CA50 A02]”, the Kd in data set [2] came to 30.7 nM.
In turn, “GGGUCGUGUCGGAUCCCCCAAAAAGGAUUGGGGCGUCUGCAUGACCAAGCUUCUAAGGUAACGAU [CA72-4 A02]” showed a Kd in data set [1] of 71.2 nM.
For the molecule “GGGUCGUGUCGGAUCCGUGAGUUUUUCGCGGCGAAGACAAGGCUCGAAGCUUCUAAGGUAACGAU [CA50 A01]”, in data set [2], the Kd worked out at 38 nM.

B1: CEA A02 (structured_RNA)
RNA: GGGUCGUGUCGGAUCCAACGGCAUGACCUAACCUGGAGGCGCAUCAAAGCUUCUAAGGUAACGAU
As for B1, the dissociation constant Kd in data set [3] was 156 nM.
